Results on one molecule are retold here after US20210388331A1 (NEURO BIO, published 2021).

In the experiment the target is T1, α7 nicotinic-receptor (in rat brain slices / rat brain membranes) (rat, UniProt Q05941 23-502).
T1 construct: whole, on cells; also called α7 receptor; alpha-7 nicotinic acetylcholine receptor
The experiment can be described thus: [3H] ivermectin displacement, rat brain membranes (told in the legend of FIG. 6 only).

T1 sequence (Q05941 23-502): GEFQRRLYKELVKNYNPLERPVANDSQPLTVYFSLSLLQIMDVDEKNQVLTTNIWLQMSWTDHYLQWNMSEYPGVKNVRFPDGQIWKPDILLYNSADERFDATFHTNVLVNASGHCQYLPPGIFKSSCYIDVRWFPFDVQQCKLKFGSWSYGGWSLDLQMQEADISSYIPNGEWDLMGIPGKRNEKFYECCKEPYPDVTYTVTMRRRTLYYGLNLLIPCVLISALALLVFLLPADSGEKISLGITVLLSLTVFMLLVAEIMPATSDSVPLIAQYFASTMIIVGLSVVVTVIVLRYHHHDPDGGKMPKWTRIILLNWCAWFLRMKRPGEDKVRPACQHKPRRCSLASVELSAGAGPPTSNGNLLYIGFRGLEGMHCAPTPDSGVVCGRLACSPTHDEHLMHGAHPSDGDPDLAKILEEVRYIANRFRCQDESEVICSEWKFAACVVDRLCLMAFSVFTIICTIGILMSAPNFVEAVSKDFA

For the molecule AEFHRWSSYMVHWK (also called linear T14) [T14 (AChE C-terminal peptide, linear)], the binding result is “binds”.
